Laboratory results published in US5814599A, “Transdermal delivery of encapsulated drugs” (Massachusetts Insitiute of Technology, priority 1995, dated 1998).
Where two headings read alike, the source gives them in different places.

Columns and labels:
[1] = In vitro skin permeability to proteins in the presence of ultrasound (Franz diffusion cell); assay type: in vitro ADME, human
Protocol: To assess whether application of ultrasound enhances transdermal protein flux, the skin permeability to these proteins in the presence of ultrasound in vitro across human cadaver epidermis in a Franz Diffusion Cell (Crown Glass Company) was measured. […] The concentration of proteins in the receiver compartment was measured every hour either by RIA or ELISA. The insulin concentration in the receiver compartment was measured every hour by Radioimmuno Assay (performed at Linco Research Inc., St. Charles). The γ-interferon concentration was measured using ELISA methods developed by Endogen Inc, and the erythropoeitin concentration was measured by ELISA (performed at ARUP, Salt Lake City). Skin permeabilities to proteins were calculated using the transdermal fluxes measured during the first hour. The transdermal flux can be calculated using the equation, J=DM/.increment.t, where .increment.M is the amount of protein transported per unit skin area during time .increment.t. The skin permeabilities, P, can be calculated from the transdermal flux, J, during the first hour of ultrasound application using the equation, P=J/.increment.C, where .increment.C is the concentration difference across the skin.

[2] = Protocol: (§1) Materials and methods: In vivo as well as in vitro experiments were performed to study the effect of low-frequency ultrasound on the transport of insulin across the skin. In vitro experiments were performed using human cadaver skin. The skin was heat stripped by keeping it in water at 60° C. for two minutes followed by the removal of the epidermis. It was then stored at 4° C. in a humidified chamber. A piece of epidermis was taken out from the chamber prior to the experiments and was mounted on the Franz diffusion cell (Crown Bioscientific Co.) which consists of two compartments, the donor and the receiver compartment. […] The human cadaver epidermis (separated from the dermis by heat-treatment) is mounted between the two compartments and is supported by a Nylon mesh (Tetko Inc.) to avoid any damage. The skin was supported by a nylon mesh (Tetko Inc.) in order to a mimic the fact the skin in vivo is supported by mechanically strong dermis. The compartments were then clamped together. The receiver compartment was filled with 2%. BSA (Sigma Chemicals) solution in PBS (Sigma Chemicals) and the donor solution was filled with 100 U/ml solution of human recombinant insulin (Humulin Regular). The ultrasound intensity, I, (Spatial Average Temporal Peak) was calculated from the values of the acoustic pressure amplitude, P, measured using a hydrophone (Bruel and Kjaer) using the equation, I=P^2 /2.rho.c, where .rho. is the water density (1 gm/ml), and c is the velocity of ultrasound in water [1500 m/s].
[3] = test system: hairless rats; assay: In vivo insulin sonophoresis, blood glucose level of normal hairless rats; conditions: for amount of insulin delivered: 225 mW/cm^2, area 3 cm^2; for blood glucose level after ultrasound exposure: normal rats, from about 250 mg/dl
Protocol: Materials and Methods: In vivo experiments were performed using hairless rats (Charles River). The rats were kept in quarantine to insure good health. On the day of experiment, they were taken out of the cages, anesthetized using a mixture of ketamine (90 mg/kg) and xylazine (10 mg/kg). After about an hour into anesthesia, a glass chamber was glued to the back of the rat using superglue (Permeabond). The glass chamber was filled with 100 U/ml solution of insulin and ultrasound (frequency of 20 KHz, intensity in the range of 0 to 1 W/cm^2, 100 msec pulses applied every second) was applied. The blood glucose level was measured every 30 minutes. Ultrasound was typically turned OFF after 1 hour, although the measurements of the blood glucose were continued for the next three hours.
To estimate the amount of insulin penetrating the hairless rat skin during sonophoresis at the various intensities reported in FIG. 2A, various known amounts of insulin in the range of 0 to 1 U subcutaneously (most commonly used method of insulin administration today) in normal rats. The blood glucose levels of these rats were then compared with those of the normal rats undergoing sonophoresis.
In order to estimate the dependence of the amount of insulin delivered on ultrasound exposure time (in vivo), insulin-sonophoresis experiments (20 KHz, […], 100 msec pulses applied every second) were performed on normal rats for different exposure times in the range of 1 minute to 1 hour.

[4] = diabetic hairless rats
[5] = remark: listed apart in the source
Protocol: as §1
Ultrasound was turned ON at a frequency of 20 KHz, an intensity varying in the range of 0 to 1 W/cm^2 and 10% duty cycle. Samples (200 μl) were taken from the receiver compartment every hour to measure the concentration of insulin in the receiver compartment. The samples were immediately frozen and were stored at -20° C. till they were analyzed by RIA (Linco Research Co.). Ultrasound was typically applied for 4 hours and was then turned OFF. Transdermal insulin flux was followed for next two hours.

[6] = test system: diabetic hairless rats; assay: In vivo insulin sonophoresis, blood glucose level of diabetic hairless rats; parameters: species or system rat; conditions: in 30 minutes, 20 KHz
Protocol: The blood glucose level was measured every 30 minutes.

[7] = Transdermal glucose extraction by sonophoresis in vitro; assay type: in vitro ADME, human; conditions: for glucose concentration attained in the donor compartment: 10 minutes sonophoresis; for glucose concentration in the donor compartment as percent of that in the receiver compartment: 20 KHz, 125 mW/cm^2, continuous
Protocol: Transdermal transport of a ^14 C labeled (New England Nuclear) as well as non-labeled (Sigma Chemicals) was studied in the presence as well as in the absence of low-frequency ultrasound. The permeability experiments were performed in vitro using human cadaver skin obtained from local hospitals. […] The Franz diffusion cell consists of two compartments, the donor and the receiver compartments, with the stratum comeum facing the donor compartment. […] The donor and receiver compartments were then clamped. The receiver compartment was filled Phosphate Buffer Saline (PBS, phosphate concentration=0.01M, NaCl concentration=0.137M) (Sigma Chemicals Co.) The donor compartment was filled with a solution of either radiolabelled glucose (1 mCi/ml) or non-labeled glucose (concentration in the range of 50 mg/dL to 300 mg/dL) in separate experiments. The concentration of the permeant in the receiver compartment was measured every 5 minutes using a scintillation counter (model 2000 CA, Packard) in the case of radiolabelled glucose and using a commercially available kit (Sigma Chemicals) in the case of unlabeled glucose.
Ultrasound was applied using a sonicator (VCX 400, Sonics and Materials) operating at a frequency of 20 KHz. The ultrasound intensity was measured using a hydrophone (Model 8106, Bruel and Kjaer).
Additional experiments were performed to assess whether the amount of glucose transported by sonophoresis is proportional to the glucose concentration in the […]. In separate experiments, glucose concentration in the receiver solution was varied from 50 mg/dL to 350 mg/dL (typical variation in the blood glucose level of a diabetic patient) and performed sonophoresis using ultrasound (20 KHz, 125 mW/cm^2, continuous) for 10 minutes. […] The line shown in FIG. 3B represents the best fit.

[8] = test system: hairless rats; assay: Transdermal glucose extraction by sonophoresis in vivo; parameters: species or system rat; conditions: 20 KHz, 62.5, continuous, 1 minute
Protocol: In vivo experiments were performed to assess the efficacy of sonophoresis across living skin. […] The hairless rats were anesthetized with a mixture of ketamine (60 mg/kg) and xylazine (10 mg/kg). After about an hour in anesthesia, a flanged glass cylinder (Crown Glass Company, diameter 20 mm, height 2 cm) was glued on the rat's back using a minimal amount of superglue (Permabond International) or vacuum grease (Dow Chemicals) on the outer edge of the flange. The center of the cylinder was located about 3 cm from the rear end of the rat. This particular site was chosen to avoid application of ultrasound directly on a sharp bone close to the body surface, which otherwise might have caused damage to the blood capillaries near the edge of the bone. The cylinder was filled with PBS (phosphate concentration=0.01M, NaCl concentration=0.137M) (Sigma Chemicals Co.). […] The concentration of glucose in PBS was measured using an assay kit (Sigma Chemicals).

[9] = within 2 hours after turning ultrasound OFF

erythropoeitin
dose deliverable from a transdermal patch by sonophoresis [1]: about 140 U/h | human skin permeability [1]: 9.8×10^-6 (±40%) cm/h

O [water]
water permeability enhancement ([2]; during sonophoresis, 20 KHz, 125 mW/cm^2, 100 msec pulses every second): 100 fold | recovery of water permeability enhancement [2, 9]: about 94 (±3) % | recovery of water permeability enhancement ([2]; within 15 hours after turning ultrasound OFF): 98 (±1) %

insulin
dose deliverable from a transdermal patch by sonophoresis ([1]; patch area 40 cm^2, donor 100 U/ml insulin, 3×10^7 γ-interferon, 3×10^5 U/ml erythropoeitin): about 12 U/h | human skin permeability ([1]; ultrasound 20 KHz, 225 mW/cm^2, 100 msec pulses every second, first hour): 3.3×10^-3 (±35%) cm/h | blood glucose level upon 1 hour insulin-ultrasound treatment ([3]; 20 KHz, 100 msec pulses every second, intensities 0 to 225 mW/cm^2): intensity dependent decrease | amount of insulin delivered ([3]; 10 minute ultrasound application): about 100 mU | amount of insulin delivered ([3]; 1 hour ultrasound exposure): about 1 U | blood glucose level after ultrasound exposure ([3]; 10 minute exposure, 20 KHz): about 150 mg/dl | blood glucose level after ultrasound exposure ([3]; 1 hour exposure, 20 KHz): about 30 mg/dl | subcutaneous insulin dose inducing a similar decrease in blood glucose level ([3]; sonophoresis 1 hour at 62.5 mW/cm^2): 100 mU | subcutaneous insulin dose inducing a similar decrease in blood glucose level ([3]; sonophoresis 1 hour at 225 mW/cm^2): 1 U | level of transdermally delivered human insulin in rat plasma ([4]; after 30 minutes of sonophoresis): 77 (±28) picomolar | level of transdermally delivered human insulin in rat plasma ([4]; after 1 hour of sonophoresis): 178 (±84) picomolar | transdermal insulin flux before ultrasound ([5]; before ultrasound turned ON): below the detection limit | insulin dose that could be delivered from a patch ([5]; flux 100 mU/cm^2 /hr, patch area 100 cm^2): about 13 U/h | transdermal insulin flux after turning ultrasound OFF ([5]; three hours after turning ultrasound OFF): statistically insignificant | transdermal insulin flux ([5]; ultrasound 20 KHz, 125 mW/cm^2, 10%, reached in about 1 hour, almost constant while ultrasound ON, donor 100 U/ml): about 100 mU/cm^2 /hr | transdermal insulin permeability without ultrasound ([5]; ultrasound intensity = 0 (FIG. 1B)): impermeable | transdermal insulin flux after turning ultrasound OFF [5, 9]: below our detection limit | blood glucose level after insulin-ultrasound treatment ([6]; diabetic hairless rats, from about 400 mg/dl, 225 mW/cm^2, 100 msec pulses every second): 200 mg/dL | blood glucose level after insulin-ultrasound treatment ([6]; diabetic rat, from 400 mg/dl, 125 mW/cm^2, 100 msec pulses every second): 200 mg/dL

O=C[C@H](O)[C@@H](O)[C@H](O)[C@H](O)CO [glucose]
glucose concentration attained in the donor compartment ([7]; receiver compartment 50 mg/dL): 0.5 mg/dL | glucose concentration attained in the donor compartment ([7]; receiver compartment 350 mg/dL): 6.5 mg/dL | glucose concentration in the donor compartment as percent of that in the receiver compartment ([7]; after 5 minutes of sonophoresis): about 0.5% | glucose concentration in the donor compartment as percent of that in the receiver compartment ([7]; after 10 minutes of sonophoresis): about 2% | glucose concentration in the reservoir after extraction ([8]; rat blood glucose 450 mg/dL): 1 mg/dL | glucose concentration in the reservoir after extraction ([8]; rat blood glucose about 200 mg/dL): 0.2 mg/dL

B1: γ-interferon (protein, UniProt P01579 24-161, looked up)
Interferon gamma: QDPYVKEAENLKKYFNAGHSDVADNGTLFLGILKNWKEESDRKIMQSQIVSFYFKLFKNFKDDQSIQKSVETIKEDMNVKFFNSNKKKRDDFEKLTNYSVTDLNVQRKAIHELIQVMAELSPAAKTGKRKRSQMLFRG
notes: γ-interferon (2500 U/ml, Genzyme Corp.), molecular weight 17,000 D
dose deliverable from a transdermal patch by sonophoresis [1]: about 5×10^6 U/h | human skin permeability [1]: 8×10^-4 (±22%) cm/h
